Data taken from the supplement of paper PMC10567573.

B1: TMEM192 (parent)
chain: LWILHLLLECYIQYHHSKIRNRGY

Variants of: B1
Assay: protein stability index of a GFP-peptide fusion (GPS, HEK-293T) (PSI 1-6); higher = more stable
Conditions: c terminus: a fixed tail appended
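Note: lentivirally expressed fusions sorted by FACS into six bins by GFP to DsRed ratio, PSI derived from sequencing read proportions per bin multiplied by bin number.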

Protein stability index of substitutions, site by site:
Y11: Q 2.06, S 3.45, T 2.21
I12: C 1.69, D 1.5, E 1.88, F 3.41, G 1.07, H 1.95, K 2.21, L 2.53, M 1.82, N 2.13, Q 1.62, R 2.8, S 1.94, T 2.58, V 2.27, W 1.79
Q13: A 3.94, C 2.06, D 2.32, E 1.8, F 2.88, G 1.39, H 2.98, I 2.75, K 2.05, L 2, M 2.08, N 3.19, P 3, R 2.9, S 1.9, T 1.75, Y 1.85
Y14: A 3.1, C 2.16, D 2.21, E 2.18, F 2.96, G 1.41, H 2.31, I 1.79, K 2.01, L 3.2, N 1.53, P 2.67, Q 2, R 2.11, S 2.47, T 2.49, V 2.53, W 1.1
H15: C 2.19, D 1.56, G 2.37, L 2.14, M 2.41, N 2.7, P 2.18, Q 2.24, R 2.33, S 2.72, T 1.25, V 2.15, Y 2.86
H16: C 2.41, D 1.47, E 1.91, F 2.36, G 2.53, I 3.68, K 1.64, L 1.85, N 1.3, P 2.29, Q 2.43, R 1.5, S 1.05, V 2.54, W 2.85
S17: A 2.68, C 2.7, D 2.04, G 2.28, H 2.86, I 2.57, M 1.11, N 2.6, P 2.26, Q 2.37, R 3.51, T 2.08, V 1.59, W 2.15, Y 4.45
K18: D 3.53, E 2.77, F 2.88, G 2.69, H 4.09, M 3.16, N 3.08, P 2.32, Q 2.67, R 4.17, S 3.8, T 2.76
I19: A 2.33, D 1.73, F 3.16, G 2.44, H 1.43, K 1.31, L 2.14, N 1.88, P 2.04, Q 1.55, R 1.96, S 1.78, T 1.94, V 2.01, W 1.88
R20: A 3.18, D 2.8, G 2.05, H 2.63, I 3.52, K 1.97, L 1.89, M 3.17, N 2.26, P 3.47, Q 1.87, S 2.63, T 2.38, W 2.45, Y 2.69
N21: A 2.86, F 1.97, G 2.35, H 2.53, I 2.45, K 1.98, L 2.11, P 2.81, R 3.57, S 2.7, V 2.93, W 2.74, Y 2.6
R22: A 2.18, C 4.22, D 3.49, F 2.93, I 2.69, K 1.46, L 2.44, N 2.26, P 1.67, Q 3.54, S 2.66, V 1.17, W 3.32, Y 1.98
G23: A 2.48
